Patent US20180280504A1, “GLYCAN-INTERACTING COMPOUNDS AND METHODS OF USE” (SIAMAB THERAPEUTICS, INC., priority 2014, published 2018)

Assays:
E3-STn tumors = assay: E3-STn murine breast tumor allograft model, tumor volume; type: in vivo, mouse; conditions: for Average Tumor Volume (mm^3): 7G9-1A8 25 mg/kg i.p. twice weekly for 3 weeks, Paclitaxel daily for 5 days
Protocol: 3 test articles were evaluated during the study.
Standard deviation values are listed in parenthesis.

[1] = E3-STn allograft model, pathological evaluation of H&E stained organs; type: in vivo, mouse; conditions: 5 treated mice
Protocol: At the end of the study described in Example 22, three mice from the vehicle control group and five mice that received 7G9-1A8 were chosen at random for post-study pathology assessment. Brain, colon, intestine, heart, kidney, liver, lung, mandibular salivary gland, pancreas, spleen, stomach, adrenal gland and thyroid gland organs were collected from each mouse. The organs were fixed in formalin (VWR; Radnor, Pa.) for about 48 hours, transferred to 70% ethanol (Sigma-Aldrich; St.Louis, Mo.), and then processed for standard H&E staining.
The H&E stained tissue slides were examined for pathology review. Liver sections from each animal had multifocal inflammation with or without concomitant hepatocellular necrosis. The histo-pathological changes were minimal to mild in severity. There was no appreciable difference in the morphology of lesions among vehicle control group mice and mice that received 7G9-1A8.

[2] = E3-STn allograft model, second round study, average body weight
Protocol: 50 female Balb/cmice were inoculated with E3-STn cells to cause STn-expressing tumor formation when they were 5 weeks old. Mice were housed in individually ventilated microisolator cages, and maintained under pathogen-free conditions with irradiated feed and autoclaved water. […] Beginning on the first day of the study, body weight and tumor volumes were recorded twice weekly. 33 mice with mean tumor volume between 100 and 150 mm^3 were selected for randomization.
The average weight of mice in each treatment group was also determined on days 1, 5, 8, 12, 15,19, 22, 26, 29, 33, 36, 40, 43, 47 and 50 following the first administration of each test article (see the following Table). The percent gain or loss over initial weight values is listed in parentheses.

[3] = Glycan array, 9-O-acetylated AcSTn; type: binding; conditions: glycan microarray, Cy3 anti-mouse IgG
Protocol: (§1) Optimized glycan arrays comprise 71 chemically synthesized and well-defined glycans, most of which comprise Neu5Ac and Neu5Gc glycan pairs.
(§2) 300 ml of epoxy blocking buffer is prepared by combining 15 ml of 2 M Tris buffer (pH 8) with 0.9 ml of 16.6 M ethanolamine and 284.1 ml of distilled water. The solution was brought to a final pH of 9.0 with HCl. The solution is filtered using a 0.2 μM nitrocellulose membrane. The epoxy buffer solution as well as 1 L of distilled water are pre-warmed to 50° C. Glass slides are arranged in a slide holder and quickly submerged in a staining tub with the warmed epoxy blocking buffer. Slides are incubated in the epoxy blocking buffer for 1 hour at 50° C. with periodic shaking to deactivate epoxy binding sites. Next, slides are rinsed and blocked with PBS with 1% OVA at 25° C. for one hour. Serum samples with polyclonal antibodies (1:1000) or purified monoclonal antibodies (1 ug/mL), are diluted in PBS with 1% OVA and added to the glycan array for one hour at 25° C. After extensive washing, binding of antibodies are detected by incubating glycan microarray slides with Cy3-conjugated anti-mouse IgG (Jackson Immunoresearch, West Grove, Pa.) for one hour. Slides are then washed extensively, dried and scanned with a Genepix 4000B scanner (Laser at 100%; gain at 350; 10 μm pixels). […]

[4] = Glycan array, 9-O-acetylated GcSTn; type: binding; conditions: glycan microarray, Cy3 anti-mouse IgG
Protocol: as §1, §2

[5] = tested on: MDA-MB-231-STn Human Breast Tumor Xenograft; assay: MDA-MB-231-STn human breast cancer xenograft model, tumor volume; type: in vivo, mouse; conditions: 5 mg/kg i.p. once weekly
Excerpt: To evaluate antibody drug conjugates (ADCs) as single agents in an MDA-MB-231-STn Human Breast Tumor Xenograft model, 40 ICR SCID female mice age range 6-8 weeks were randomly separated into four separate groups, one vehicle control and three ADC treatments, then maintained individually with food/water ad libitum (see the following Table).
Animals were inoculated in the subcutaneous right flank with 5×10^6 breast tumor cells (MDA-MB-231-STn) in matrigel, mean tumor size was 175-225 mm^3 at study initiation. Animals were given either vehicle or antibody drug conjugates (5 mg/kg) by intraperitoneal injection once weekly. Tumor volume and percent body weight change were determined once weekly until study termination. The study was terminated when the tumor in the vehicle control animal reached a mean tumor weight ≥1500 mm^3. SE refers to “standard error.”

B1: 7G9: anti-STn mouse monoclonal, IgG2b κ, from mouse #4407; VH SEQ ID NO: 12, VL SEQ ID NO: 9 (antibody, V domains shown)
VH: QVQLKESGPGLVAPSQNLSITCTVSGFSLTSYGVNWVRQPPGKGLEWLGVIWGDGSTNYHSALISRLIISKENSKSQVFLKLNSLQTNDTATYYCTKGFVYWGQGTLVTVSA
VL: QIVLTQSPAIMSASPGEKVTMTCSASSSVSYMHWYQQKSGTSPKRWIFDTSKLASGVPARFSGSGSGTSYSLTISSMEAEDAATYYCQQWSSNLLTFGAGTKLELK
For B1, the “average tumor volumes as compared to Paclitaxel and vehicle control” value (E3-STn tumors; 25 mg/kg i.p. twice weekly for 3 weeks) was “greatly reduced”, the “Average Tumor Volume (mm^3)” value (E3-STn tumors; day 1) was 112.4 mm^3 and the “Average Tumor Volume (mm^3)” value (E3-STn tumors; day 4) was 148.7 mm^3. The “Average Tumor Volume (mm^3)” value (E3-STn tumors; day 6) was 161.9 mm^3, the “Average Tumor Volume (mm^3)” value (E3-STn tumors; day 8) was 152.8 mm^3 and the “Average Tumor Volume (mm^3)” value (E3-STn tumors; day 11) was 136.3 mm^3. For the same molecule, the “Average Tumor Volume (mm^3)” value (E3-STn tumors; day 13) was 118.4 mm^3, the “Average Tumor Volume (mm^3)” value (E3-STn tumors; day 15) was 105.1 mm^3 and the “Average Tumor Volume (mm^3)” value (E3-STn tumors; day 18) was 99.5 mm^3. For the same molecule, the “Average Tumor Volume (mm^3)” value (E3-STn tumors; day 20) was 91.7 mm^3, the “Average Tumor Volume (mm^3)” value (E3-STn tumors; day 22) was 105.2 mm^3 and the “Average Tumor Volume (mm^3)” value (E3-STn tumors; day 26) was 102.8 mm^3. The “Average Tumor Volume (mm^3)” value (E3-STn tumors; day 27) was 107.4 mm^3, the “Average Tumor Volume (mm^3)” value (E3-STn tumors; day 29) was 147.1 mm^3 and the “Average Tumor Volume (mm^3)” value (E3-STn tumors; day 32) was 160.6 mm^3. For the same molecule, the “Average Tumor Volume (mm^3)” value (E3-STn tumors; day 34) was 164.7 mm^3, the “Average Tumor Volume (mm^3)” value (E3-STn tumors; day 36) was 212.1 mm^3 and the “Average Tumor Volume (mm^3)” value (E3-STn tumors; day 39) was 206.6 mm^3. For the same molecule, the “Average Tumor Volume (mm^3)” value (E3-STn tumors; day 41) was 235.3 mm^3, the epicardial inflammation [1] was “not observed” and the “neutrophil aggregates in the muscularis mucosa of the stomach” value [1] was “not observed”. The “liver histopathology (multifocal inflammation, hepatocellular necrosis) vs vehicle control” value ([1]; 3 vehicle mice) was “no significant difference between the groups”, the “Average Weight” value ([2]; day 1 of study) was 18.3 g and the “Average Weight” value ([2]; day 5 of study) was 18.7 g. For the same molecule, the “percent gain or loss over initial weight” value ([2]; day 5 of study) was “(2.4) %”, the “Average Weight” value ([2]; day 8 of study) was 19.4 g and the “percent gain or loss over initial weight” value ([2]; day 8 of study) was “(6.5) %”. For the same molecule, the “Average Weight” value ([2]; day 12 of study) was 20.1 g, the “percent gain or loss over initial weight” value ([2]; day 12 of study) was “(10.1) %” and the “Average Weight” value ([2]; day 15 of study) was 20.4 g. The “percent gain or loss over initial weight” value ([2]; day 15 of study) was “(12.0) %”, the “Average Weight” value ([2]; day 19 of study) was 20.9 g and the “percent gain or loss over initial weight” value ([2]; day 19 of study) was “(14.3) %”. For the same molecule, the “Average Weight” value ([2]; day 22 of study) was 20.8 g, the “percent gain or loss over initial weight” value ([2]; day 22 of study) was “(14.1) %” and the “Average Weight” value ([2]; day 26 of study) was 21.5 g. For the same molecule, the “percent gain or loss over initial weight” value ([2]; day 26 of study) was “(17.8) %”, the “Average Weight” value ([2]; day 29 of study) was 22.1 g and the “percent gain or loss over initial weight” value ([2]; day 29 of study) was “(21.1) %”. The “Average Weight” value ([2]; day 33 of study) was 22.2 g, the “percent gain or loss over initial weight” value ([2]; day 33 of study) was “(21.4) %” and the “Average Weight” value ([2]; day 36 of study) was 22.1 g. For the same molecule, the “percent gain or loss over initial weight” value ([2]; day 36 of study) was “(21.0) %”, the “Average Weight” value ([2]; day 40 of study) was 22.8 g and the “percent gain or loss over initial weight” value ([2]; day 40 of study) was “(25.0) %”. For the same molecule, the “Average Weight” value ([2]; day 43 of study) was 22.9 g, the “percent gain or loss over initial weight” value ([2]; day 43 of study) was “(25.4) %” and the “Average Weight” value ([2]; day 47 of study) was 22.8 g. The “percent gain or loss over initial weight” value ([2]; day 47 of study) was “(25.0) %”, the “Average Weight” value ([2]; day 50 of study) was 23.8 g and the “percent gain or loss over initial weight” value ([2]; day 50 of study) was “(30.2) %”. The “percent gain in weight as compared to vehicle control” value ([2]; second round study) was “higher percent gain in weight”.

B2: 18C7: anti-STn mouse monoclonal, IgG2c κ, from mouse #4436; VH SEQ ID NO: 4, VL SEQ ID NO: 5 (antibody, V domains shown)
VH: QVTLKESGPGILQPSQTLSLTCSFSGFSLSTFGMGVGWIRQPSGKGLEWLAHIWWDDDKYYNPALKSRLTISKDTSKNQVFLKIANVDTADTATYYCARIAYYYGSERDYWGQGTTLTVSS
VL: QIVLTQSPAIMSASPGEKVTMTCSASSSISYMHWYHQKPGTSPKRWIYDTSKLASGVPARFSGSGSGTSYSLTISSMEAEDAATYYCHQRSSYTFGGGTKLEIKR
In the case of B2, the “mean fluorescence intensity, Neu5,9Ac2-α2,6-GalNAc” value [3] is reported as “about 4,500” and the “mean fluorescence intensity, Neu5,9Ac5Gc-α2,6-GalNAc” value [4] is reported as “about 2,000”.

B3: S3F: 3F1 variable domains combined with IgG2a constant domains; heavy chain SEQ ID NO: 63, light chain SEQ ID NO: 64 (antibody)
heavy: QVQLQQSDAELVKPGASVKISCKASGYTFTDHAIHWVKQKPEQGLDWIGYISPGNGDIKYNEKFKDKVTLTADKSSSTACMHLNSLTSEDSAVYFCKRSLLALDYWGQGTTLTVSSAKTTAPSVYPLAPVCGDTTGSSVTLGCLVKGYFPEPVTLTWNSGSLSSGVHTFPAVLQSDLYTLSSSVTVTSSTWPSQSITCNVAHPASSTKVDKKIEPRGPTIKPCPPCKCPAPNLLGGPSVFIFPPKIKDVLMISLSPIVTCVVVDVSEDDPDVQISWFVNNVEVHTAQTQTHREDYNSTLRVVSALPIQHQDWMSGKEFKCKVNNKDLPAPIERTISKPKGSVRAPQVYVLPPPEEEMTKKQVTLTCMVTDFMPEDIYVEWTNNGKTELNYKNTEPVLDSDGSYFMYSKLRVEKKNWVERNSYSCSVVHEGLHNHHTTKSFSRTPGK
light: DIVMTQSHKFMSTSVGDRVSITCKASQDVGTNIAWYQQKPGRSPKVLIYSASTRHTGVPDRFTGSGSGTDFTLTISNVQSEDLTDYFCQQYSSFPLTFGVGTKLELKRADAAPTVSIFPPSSEQLTSGGASVVCFLNNFYPKDINVKWKIDGSERQNGVLNSWTDQDSKDSTYSMSSTLTLTKDEYERHNSYTCEATHKTSTSPIVKSFNRNEC
For B3, the “total tumor volume course” value ([5]; ICR SCID mice) was “increased at all time points”, the “Tumor Volume” value ([5]; day 1) was 178.6 mm^3 and the “Tumor Volume” value ([5]; day 4) was 194.3 mm^3. The “Tumor Volume” value ([5]; day 8) was 244.9 mm^3, the “Tumor Volume” value ([5]; day 10) was 301.0 mm^3 and the “Tumor Volume” value ([5]; day 15) was 445.1 mm^3. The “Tumor Volume” value ([5]; day 18) was 609.7 mm^3, the “Tumor Volume” value ([5]; day 23) was 775.4 mm^3 and the “Tumor Volume” value ([5]; day 25) was 972.7 mm^3.
